Assay results from article PMC5465077.

Molecular target: Her2 on SKBR3 cells (human (endogenous in SKBR3)) (UniProt P04626)
Assay: flow cytometry on cells; 200,000 SKBR3 cells per sample incubated on ice for 60 min with serial dilutions of antibody or ADC in FACS buffer (DPBS, 1% BSA); detected with Alexa 647 goat anti-human IgG; mean fluorescence intensities fitted with a one-site specific binding equation

Kd: 7.6 nM
Substance: Trastuzumab^CF MMAF (AB4285) LC-S7 (antibody)
